Measurements as given in the supplement of paper PMC7877785.
± gives the uncertainty stated by the source.

Test: self-splicing fitness, log relative to wild type (ln ratio); higher = more splicing; Tetrahymena group I intron in knt gene, E. coli kanamycin selection, DiMSum; sequences stand for … in CUCUCU…GGAGGGAAAAGUUAUCAGGCAUGCACCUGGUAGCUAGUCUUUAAACCAAUAGAUUGCAUCGGUUUAAAAGGCAAGACCGUCAAAUUGCGGGAAAGGGGUCAACAGCCGUUCAGUACCAAGUCUCAGGGGAAACUUUGAGAUGGCCUUGCAAAGGGUAUGGUAAUAAGCUGACGGACAUGGUCCUAACCACGCAGCCAAGUCCUAAGUCAACAGAUCUUCUGUUGAUAUGGAUGCAGUUCACAGACUAAAUGUCGGUCGGGGAAGAUGUAUUCUUCUCAUAAGAUAUAGUCGGACCUCUCCUUAAUGGGAGCUAGCGGAUGAAGUGAUGCAACACUGGAGCCGCUGGGAACUAAUUUGUAUGCGAAAGUAUAUUGAUUAGUUUUGGAGUACUCGUGGUCG
In short: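 DiMSum derived fitness as the error-weighted combination of fold changes across replicates, kanamycin versus no kanamycin, normalised to wild type. E. coli BL21(DE3) held the library, which randomised all eight P1ex-region intron nucleotides within the knt kanamycin-resistance gene on pET-22b(+). Six replicate transformations grew overnight at 37°C or 30°C on LB agar with or without 25 μg/mL kanamycin, also containing 100 μg/mL carbenicillin, 50 μM IPTG and 0.2% rhamnose, and pooled colonies were amplicon-sequenced on an Illumina HiSeq 2500.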

| Sequence | self-splicing fitness (ln) (30 °C) | self-splicing fitness (ln) (37 °C) |
| --- | --- | --- |
| GACGAGCAAUAUUACGGUCC | -3.83 ± 0.25 | -1.74 ± 0.23 |
| GACGAGCAAUAUUACGUAUU | -3.7 ± 0.21 | -2.44 ± 0.18 |
| GACGAGCAAUAUUACGUGAA |  | -2.29 ± 0.32 |
| GACGAGCAAUAUUACGUGCC | -1.56 ± 0.14 | -1.97 ± 0.26 |
| GACGAGCAAUAUUACGUGUA | -5.08 ± 0.25 | -2.49 ± 0.14 |
| GACGAGCAAUAUUACGUUGG | -3.34 ± 0.12 | -3.25 ± 0.22 |
| GACGAGCAAUAUUACGUUUA | -2.06 ± 0.14 | -0.752 ± 0.12 |
| GACUAGCAAUAUUACGAAUG | -2.65 ± 0.18 | -1.93 ± 0.17 |
| GACUAGCAAUAUUACGACGG | -2.2 ± 0.24 | -1.78 ± 0.35 |
| GACUAGCAAUAUUACGAGCA | -1.51 ± 0.14 | -0.564 ± 0.13 |
| GACUAGCAAUAUUACGAUAA | -0.678 ± 0.12 | -0.492 ± 0.13 |
| GACUAGCAAUAUUACGCUCC | -3.46 ± 0.47 |  |
| GACUAGCAAUAUUACGCUGC | -3.53 ± 0.21 | -2.85 ± 0.28 |
| GACUAGCAAUAUUACGCUGG | -3.18 ± 0.21 | -2.13 ± 0.25 |
| GACUAGCAAUAUUACGGAAA | -1.53 ± 0.14 | -0.989 ± 0.14 |
| GACUAGCAAUAUUACGGGGU | -4.18 ± 0.17 | -2.91 ± 0.15 |
| GACUAGCAAUAUUACGGUAU | -1.3 ± 0.074 | -0.543 ± 0.092 |
| GACUAGCAAUAUUACGGUGG | -1.91 ± 0.072 | -1.27 ± 0.082 |
| GACUAGCAAUAUUACGUAGU | -2.84 ± 0.18 | -2.28 ± 0.27 |
| GACUAGCAAUAUUACGUCAU | -2.73 ± 0.17 | -1.1 ± 0.17 |
| GACUAGCAAUAUUACGUCCG |  | -1.5 ± 0.31 |
| GACUAGCAAUAUUACGUGAG | -2.07 ± 0.1 | -1.54 ± 0.14 |
| GACUAGCAAUAUUACGUGCC | -1.75 ± 0.12 | -1.58 ± 0.18 |
| GACUAGCAAUAUUACGUGCG | -1.3 ± 0.073 | -0.236 ± 0.091 |

| Sequence | self-splicing fitness (ln) (30 °C) | self-splicing fitness (ln) (37 °C) |
| --- | --- | --- |
| GACUAGCAAUAUUACGUGGG | -3.35 ± 0.13 | -1.96 ± 0.098 |
| GACUAGCAAUAUUACGUUGG | -2.85 ± 0.22 | -2.42 ± 0.39 |
| GAGAAGCAAUAUUACGAAAC | -2.29 ± 0.36 | -1.71 ± 0.48 |
| GAGAAGCAAUAUUACGCAAC | -1.48 ± 0.14 | -2.11 ± 0.26 |
| GAGAAGCAAUAUUACGCGCU | -2.03 ± 0.13 | -1.49 ± 0.13 |
| GAGAAGCAAUAUUACGGCAA | -0.843 ± 0.084 | 0.00427 ± 0.11 |
| GAGAAGCAAUAUUACGGCCU | -0.28 ± 0.07 | 0.2 ± 0.089 |
| GAGAAGCAAUAUUACGGCUU | -3.58 ± 0.33 | -1.75 ± 0.24 |
| GAGAAGCAAUAUUACGGGUU | -1.88 ± 0.11 | -1.87 ± 0.16 |
| GAGAAGCAAUAUUACGGUGA | -1.88 ± 0.15 | -0.755 ± 0.15 |
| GAGAAGCAAUAUUACGUAGU | -2.89 ± 0.094 | -1.39 ± 0.097 |
| GAGAAGCAAUAUUACGUGAA | -1 ± 0.1 | -1.23 ± 0.17 |
| GAGAAGCAAUAUUACGUGCU | -2.51 ± 0.21 | -0.848 ± 0.17 |
| GAGAAGCAAUAUUACGUUAG | -2.54 ± 0.19 | -2.08 ± 0.19 |
| GAGCAGCAAUAUUACGAAGA | -2.69 ± 0.45 | -1.14 ± 0.27 |
| GAGCAGCAAUAUUACGAAGC | -3.93 ± 0.25 | -2.21 ± 0.15 |
| GAGCAGCAAUAUUACGACAA | -1.41 ± 0.3 | -2.31 ± 0.2 |
| GAGCAGCAAUAUUACGACCC | 0.0587 ± 0.081 | -0.0685 ± 0.098 |
| GAGCAGCAAUAUUACGACUA | -0.925 ± 0.097 | 0.275 ± 0.11 |
| GAGCAGCAAUAUUACGAGCG | -2.3 ± 0.092 | -1.11 ± 0.11 |
| GAGCAGCAAUAUUACGAGGA | -2.48 ± 0.17 | -2.89 ± 0.22 |
| GAGCAGCAAUAUUACGAUUG | -2.17 ± 0.083 | -2.41 ± 0.17 |
| GAGCAGCAAUAUUACGCAUA | -1.11 ± 0.099 | -0.606 ± 0.14 |
| GAGCAGCAAUAUUACGCGUG | -1.92 ± 0.15 | -1.66 ± 0.18 |
